# Key:
# Type in all cases: biochemical
# R. rubrum RubisCO [1] = target: T1, R. rubrum RubisCO (Rhodospirillum rubrum, UniProt P04718); experiment: RubisCO functional assay (activity of free, nanotube-bound or monomer-exposed enzyme)
# T1 sequence (P04718 1-466): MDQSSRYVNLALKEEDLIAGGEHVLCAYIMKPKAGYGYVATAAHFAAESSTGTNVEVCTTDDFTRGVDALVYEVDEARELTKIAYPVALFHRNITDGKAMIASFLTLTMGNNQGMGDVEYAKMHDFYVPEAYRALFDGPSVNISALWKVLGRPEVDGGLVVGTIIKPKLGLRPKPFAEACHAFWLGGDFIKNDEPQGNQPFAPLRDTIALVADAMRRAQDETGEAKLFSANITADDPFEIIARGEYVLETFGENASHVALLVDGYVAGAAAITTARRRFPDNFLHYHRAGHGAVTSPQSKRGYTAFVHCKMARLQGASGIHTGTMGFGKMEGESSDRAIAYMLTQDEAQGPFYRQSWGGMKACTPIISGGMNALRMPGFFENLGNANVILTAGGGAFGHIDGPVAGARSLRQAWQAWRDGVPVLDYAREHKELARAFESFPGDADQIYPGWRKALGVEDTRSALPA
# Method: Although the samples were identical in purity and composition, the resultant activity of the bound RubisCO varied. […] Thus, by pelleting the nanotube by ultracentrifugation, followed by additional washing of the pellet, prior to adding the enzyme, the activity increased dramatically to 67%.
# Nanotubes for this experiment were set up with 10 mM monomer in 1 mL buffer and aged for ˜5 days at room temperature. Nanotubes were then isolated using ultracentrifugation and re-suspended back in 1 mL buffer with 0.1 mg of R. rubrum RubisCO. This suspension was incubated at 1° C. for 15 hrs prior to ultracentrifugation and re-suspension of the final nanotubes in 1 mL buffer.
# R. rubrum RubisCO [2] = target: T1, R. rubrum RubisCO; experiment: as above; conditions: initial functional assays
# R. rubrum RubisCO [3] = target: T1, R. rubrum RubisCO; experiment: Stability of nanotube-RubisCO co-assembly to proteolysis by subtilisin over 45 minutes; conditions: within 45 minutes; FIG. 5
# Method: Subtilisin is a non-specific, serine protease capable of rapidly degrading proteins by amide bond cleavage. The stability of the nanotube-RubisCO co-assembly to proteolysis by subtilisin was evaluated over 45 minutes and compared to the free R. rubrum RubisCO. […] In contrast, the bound enzyme retains 75% of its activity upon exposure to the protease over this time range.
# [4] = RubisCO alone or with pre-formed nanotubes added
# [5] = pre-formed nanotubes from 10 mM monomer aged ~5 days, isolated by ultracentrifugation, re-suspended with 0.1 mg RubisCO in 1 mL buffer, 15 hrs
# [6] = Subtilisin (0.5 μg/ml; 30° C./1 hr)
substance,measurement,setting,value
"Pure R. rubrum RubisCO: RubisCO dimer from the bacterium Rhodospirillum rubrum, a CO2-fixing enzyme, free form",% Activity retained,R. rubrum RubisCO [1]; [4],100%
same,Activity,R. rubrum RubisCO [1]; [4],3405 nmol/min/mg
same,% Activity retained,R. rubrum RubisCO [1]; [5],100%
same,Activity,R. rubrum RubisCO [1]; [5],1803 nmol/min/mg
same,% Activity retained,R. rubrum RubisCO [2]; Heat (65° C./10 min),77%
same,Activity,R. rubrum RubisCO [2]; Heat (65° C./10 min),2248 nmol/min/mg
same,% Activity retained,R. rubrum RubisCO [2]; [6],7%
same,Activity,R. rubrum RubisCO [2]; [6],212 nmol/min/mg
same,Activity,R. rubrum RubisCO [2]; untreated or no treatment stated,2903 nmol/min/mg
same,Activity,"R. rubrum RubisCO [2]; untreated or no treatment stated, listed as 0.1 mg/ml R. rubrum RubisCO (after 80K spin)",3007 nmol/min/mg
same,% Activity retained,"R. rubrum RubisCO [2]; untreated or no treatment stated, relative to pure R. rubrum RubisCO",100%
same,% Activity retained,"R. rubrum RubisCO [2]; untreated or no treatment stated, relative to pure R. rubrum RubisCO, listed as 0.1 mg/ml R. rubrum RubisCO (after 80K spin)",104%
same,loss of activity in presence of subtilisin,R. rubrum RubisCO [3],80%

# Reference: patent publication US20180185502A1, “IMMOBILIZATION OF BIOMOLECULES BY SELF-ASSEMBLED NANOSTRUCTURES” (priority 2015, published 2018)
